Data published in PMC6764946, “Non-enzymatic roles of human RAD51 at stalled replication forks”.

Legend:
hsRAD51-WT = hsRAD51-WT (Homo sapiens, UniProt Q06609 1-339); assay: fluorescence polarization; 1 mM ATP, 1 mM MgCl2, 50 uM CaCl2; apparent Kd; 25 mM Tris-HCl pH 7.8, 1 mM MgCl2, 1 mM ATP, 1 mM DTT, 50 mM NaCl (printed NaCl2), 50 uM CaCl2, 100 ug/ml BSA, 37 C, 30 min; 2.4 nM oligo, RAD51 10-1000 nM; settings: protein: recombinant; tags: C-terminal His6; label: 5' Alexa Fluor 488 (Methods; legend says fluorescein); single strand
Chain of hsRAD51-WT (Q06609 whole entry): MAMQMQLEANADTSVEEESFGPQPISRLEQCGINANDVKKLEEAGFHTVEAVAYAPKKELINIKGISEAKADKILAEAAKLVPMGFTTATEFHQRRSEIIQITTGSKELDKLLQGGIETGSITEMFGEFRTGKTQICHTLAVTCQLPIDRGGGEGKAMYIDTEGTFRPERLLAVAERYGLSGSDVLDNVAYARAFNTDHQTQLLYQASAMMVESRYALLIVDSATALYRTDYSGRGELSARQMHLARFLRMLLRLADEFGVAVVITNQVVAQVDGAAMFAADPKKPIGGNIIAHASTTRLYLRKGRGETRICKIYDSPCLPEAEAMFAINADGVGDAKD

hsRAD51-II3A = hsRAD51-II3A (Homo sapiens, UniProt Q06609 1-339, R130A;R303A;K313A); assay: fluorescence polarization; 1 mM ATP, 1 mM MgCl2, 50 uM CaCl2; apparent Kd; modest binding defect; 25 mM Tris-HCl pH 7.8, 1 mM MgCl2, 1 mM ATP, 1 mM DTT, 50 mM NaCl (printed NaCl2), 50 uM CaCl2, 100 ug/ml BSA, 37 C, 30 min; 2.4 nM oligo, RAD51 10-1000 nM; settings: protein: recombinant; tags: C-terminal His6; label: 5' Alexa Fluor 488 (Methods; legend says fluorescein); single strand
Chain of hsRAD51-II3A (Q06609 whole entry R130A/R303A/K313A): as the sequence (Q06609 whole entry) above, with R130A, R303A, K313A counted along it

B1: 84-mer ssDNA (ssDNA)
DNA: GGTAGCGGTTGGGTGAGTGGTGGGGAGGGTCGGGAGGTGGCGTAGAAACATGATAGGAATGTGAATGAATGAAGTACAAGTAAA
Kd (hsRAD51-WT): 57 ± 1 nM | Kd (hsRAD51-II3A): 132 ± 5 nM
